Test results taken from patent US20190322724A1.
pKi: −log10 of the molar value.

What follows are substances tested against active 62 kDa MMP-2 (UniProt P08253) (assay: fluorometric MMP-2 activity assay, competitive inhibition fit; TIMP-2 0-2.5 nM, substrate 0.83-6.66 µM).
Sequence of active 62 kDa MMP-2 (P08253 110-660 limits assumed): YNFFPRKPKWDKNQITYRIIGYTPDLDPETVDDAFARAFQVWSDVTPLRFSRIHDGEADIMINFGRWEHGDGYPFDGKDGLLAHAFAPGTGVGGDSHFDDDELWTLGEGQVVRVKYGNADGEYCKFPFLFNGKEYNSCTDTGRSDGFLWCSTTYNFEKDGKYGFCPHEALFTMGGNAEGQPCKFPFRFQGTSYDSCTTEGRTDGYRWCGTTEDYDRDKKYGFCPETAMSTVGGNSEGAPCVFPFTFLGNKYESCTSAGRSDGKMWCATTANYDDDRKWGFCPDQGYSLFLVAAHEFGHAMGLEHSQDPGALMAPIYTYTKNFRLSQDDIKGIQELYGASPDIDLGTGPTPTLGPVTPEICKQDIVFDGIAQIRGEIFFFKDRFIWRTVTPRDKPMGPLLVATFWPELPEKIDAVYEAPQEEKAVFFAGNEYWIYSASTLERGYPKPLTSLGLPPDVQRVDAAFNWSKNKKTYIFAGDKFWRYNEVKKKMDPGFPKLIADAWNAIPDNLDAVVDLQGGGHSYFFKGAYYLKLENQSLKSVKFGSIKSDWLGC

Sequence of wild type human TIMP-2 with C-terminal His6 tag (WT TIMP-2-His6) (P16035 other isoform, or with tags, fused parts or gaps): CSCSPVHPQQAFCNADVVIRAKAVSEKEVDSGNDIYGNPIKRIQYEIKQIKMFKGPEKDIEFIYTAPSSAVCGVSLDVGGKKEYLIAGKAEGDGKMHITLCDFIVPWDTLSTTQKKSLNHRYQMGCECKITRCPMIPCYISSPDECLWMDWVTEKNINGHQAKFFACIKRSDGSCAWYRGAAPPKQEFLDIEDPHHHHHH

| pKi | Substance |
| --- | --- |
| 8.82 | wild type human TIMP-2 with C-terminal His6 tag (WT TIMP-2-His6) (from UniProt P16035 27-220) |
| 8.85 | TIMP-2 Y90F-His6 (from UniProt P16035 27-220) |
| 9.52 | TIMP-2 Y90E-His6 (from UniProt P16035 27-220) |
